The labels stand for the following.
B7: Soluble ActRIIB-Fc +15tail (Fc fusion, UniProt Q13705 19-134, looked up)
chain: SGRGEAETRECIYYNANWELERTNQSGLERCEGEQDKRLHCYASWANSSGTIELVKKGCWLDDFNCYDRQECVATEENPQVYFCCCEGNFCNERFTHLPEAGGPEVTYEPPPTAPT
notes: whole entry named; not shown: linker (if any) and Fc
B9: ActRIIB(20-134)-hFc (Fc fusion)
chain: GRGEAETRECIYYNANWELERTNQSGLERCEGEQDKRLHCYASWRNSSGTIELVKKGCWLDDFNCYDRQECVATEENPQVYFCCCEGNFCNERFTHLPEAGGPEVTYEPPPTAPT
notes: not shown: linker (if any) and human Fc (hFc)
B11: Growth and Differentiation Factor-11 (GDF11) (ligand, UniProt O95390 299-407, looked up)
chain: NLGLDCDEHSSESRCCRYPLTVDFEAFGWDWIIAPKRYKANYCSGQCEYMFMQKYPHTHLVQQANPRGSAGPCCTPTKMSPINMLYFNDKQQIIYGKIPGMVVDRCGCS
notes: also called BMP11

Assay [1] deals with B11. As to the kind of experiment: BiaCore; ligand coupled, receptor flowed over; WT (64R) construct; ligand coupled to the device, receptor flowed over (data from WO2006/012627). For orientation: In SPR one partner is held on a chip, and binding of the other changes the refractive index at the surface.
The target of assay [2] is T1, Activin A (UniProt P08476 311-426).
T1 construct: also called ActA
T1 sequence (looked up): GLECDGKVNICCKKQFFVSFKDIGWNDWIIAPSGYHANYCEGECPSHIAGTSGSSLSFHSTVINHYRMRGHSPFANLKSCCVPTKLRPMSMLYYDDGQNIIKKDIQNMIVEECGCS
As to the kind of experiment: BiaCore; ligand coupled, receptor flowed over.

Assay [3] concerns the target B11. The assay can be described thus: BiaCore; ligand coupled, receptor flowed over; legend: <1/5 WT binding.
Assay [4] has as its target B11. As to the kind of experiment: Biacore; steady-state affinity fit. The protocol:
(§1) The affinity of GDF Traps and other ActRIIB-hFc proteins for several ligands was evaluated in vitro with a BiacoreTM instrument. Kd values were obtained by steady-state affinity fit due to the very rapid association and dissociation of the complex, which prevented accurate determination of kₒₙ and koff.

Assay [5] has as its target T1, Activin A. The assay can be described thus: Biacore; steady-state affinity fit. The protocol: as §1
For a further assay, the target named is T2, Activin B (UniProt P09529 293-407).
T2 sequence (looked up): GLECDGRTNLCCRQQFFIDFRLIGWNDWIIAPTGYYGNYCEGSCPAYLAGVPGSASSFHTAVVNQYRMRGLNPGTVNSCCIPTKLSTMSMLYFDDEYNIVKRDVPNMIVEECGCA
The assay can be described thus: Biacore; steady-state affinity fit. The protocol:
as §1

Assay [6] concerns the target T1, Activin A. As to the kind of experiment: BiaCore; ligand coupled, receptor flowed over; ligand coupled to the device, receptor flowed over (data from WO2006/012627).
The target of assay [7] is B11. The assay can be described thus: BiaCore; receptor-Fc captured by anti-hFc antibody, ligand injected. How it is done:
(§2) Binding of certain ActRIIB-Fc proteins and GDF Traps to ligands was tested in a BiaCore™ assay.
(§3) The ActRIIB-Fc variants or wild-type protein were captured onto the system using an anti-hFc antibody. Ligands were injected and flowed over the captured receptor proteins.

Assay [8] deals with T3, Growth and Differentiation Factor-8 (GDF8) (UniProt O14793 267-375).
T3 construct: also called myostatin
T3 sequence (looked up): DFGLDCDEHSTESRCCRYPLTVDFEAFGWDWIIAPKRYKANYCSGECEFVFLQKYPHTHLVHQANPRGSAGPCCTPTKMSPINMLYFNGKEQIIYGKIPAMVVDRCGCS
The description is as above. The protocol: as §2, §3

Assay [9] addresses B11. The assay can be described thus: cell-based or functional assay.
For assay [10], the target named is T1, Activin A. The assay can be described thus: cell-based or functional assay.
The target of assay [11] is T1, Activin A. The assay can be described thus: BiaCore; receptor-Fc captured by anti-hFc antibody, ligand injected. How it is done:
as §2, §3

The target in assay [12] is B9. As to the kind of experiment: Biacore; steady-state affinity fit. How it is done:
as §1

Assay [13] concerns the target B9. As to the kind of experiment: BiaCore; receptor-Fc captured by anti-hFc antibody, ligand injected. How it is done: as §2, §3
The target in assay [14] is B7. As to the kind of experiment: BiaCore; ligand coupled, receptor flowed over; +15tail construct; ligand coupled to the device, receptor flowed over (data from WO2006/012627).

B1: Soluble ActRIIB-Fc WT (64R) (Fc fusion)
chain: GRGEAETRECIYYNANWELERTNQSGLERCEGEQDKRLHCYASWRNSSGTIELVKKGCWLDDFNCYDRQECVATEENPQVYFCCCEGNFCNERFTHLPEA
notes: as for B7
As a reminder, the Kd is the equilibrium constant for the complex coming apart. A higher Kd goes with lower affinity. With B1, in assay [1], the Kd was 86 nM.

B2: Soluble ActRIIB-Fc variant K74Y (Fc fusion)
chain: GRGEAETRECIYYNANWELERTNQSGLERCEGEQDKRLHCYASWANSSGTIELVYKGCWLDDFNCYDRQECVATEENPQVYFCCCEGNFCNERFTHLPEA
notes: as for B7
Consider B2, for which the binding result in the assay with Activin A [2] is “no binding”. Further, the “binding relative to WT” value in assay [3] was below 0.2 fold.

B3: Soluble ActRIIB-Fc variant D80I (Fc fusion)
chain: GRGEAETRECIYYNANWELERTNQSGLERCEGEQDKRLHCYASWANSSGTIELVKKGCWLIDFNCYDRQECVATEENPQVYFCCCEGNFCNERFTHLPEA
notes: as for B7
With B3, in the assay with Activin A [2], the binding result is “no binding”. The “binding relative to WT” value in [3] is below 0.2 fold.

B4: Soluble ActRIIB-Fc variant K74F (Fc fusion)
chain: GRGEAETRECIYYNANWELERTNQSGLERCEGEQDKRLHCYASWANSSGTIELVFKGCWLDDFNCYDRQECVATEENPQVYFCCCEGNFCNERFTHLPEA
notes: as for B7
With B4, the binding result with Activin A [2] is given as “no binding”. Further, in assay [3], the “binding relative to WT” value is below 0.2 fold.

B5: Soluble ActRIIB-Fc variant K74I (Fc fusion)
chain: GRGEAETRECIYYNANWELERTNQSGLERCEGEQDKRLHCYASWANSSGTIELVIKGCWLDDFNCYDRQECVATEENPQVYFCCCEGNFCNERFTHLPEA
notes: as for B7
Regarding B5, the binding result with Activin A [2] is recorded as “no binding”. In addition, in [3], the “binding relative to WT” value was below 0.2 fold.

B6: ActRIIB(L79 25-131)-hFc (Fc fusion)
chain: ETRECIYYNANWELERTNQSGLERCEGEQDKRLHCYASWRNSSGTIELVKKGCWLDDFNCYDRQECVATEENPQVYFCCCEGNFCNERFTHLPEAGGPEVTYEPPPT
notes: also called ActRIIB(25-131)-hFc; not shown: linker (if any) and human Fc (hFc)
Take B6: the Kd was 0.031 nM in [4], 0.018 nM with Activin A [5] and 0.012 nM with Activin B.

In the assay with Activin A [6], B7 displayed a Kd of around 26 nM.

B8: ActRIIB(L79D 20-134)-hFc (Fc fusion)
chain: GRGEAETRECIYYNANWELERTNQSGLERCEGEQDKRLHCYASWRNSSGTIELVKKGCWDDDFNCYDRQECVATEENPQVYFCCCEGNFCNERFTHLPEAGGPEVTYEPPPTAPTGGGTHTCPPCPAPELLGGPSVFLFPPKPKDTLMISRTPEVTCVVVDVSHEDPEVKFNWYVDGVEVHNAKTKPREEQYNSTYRVVSVLTVLHQDWLNGKEYKCKVSNKALPVPIEKTISKAKGQPREPQVYTLPPSREEMTKNQVSLTCLVKGFYPSDIAVEWESNGQPENNYKTTPPVLDSDGSFFLYSKLTVDKSRWQQGNVFSCSVMHEALHNHYTQKSLSLSPGK
notes: also called GDF Trap
By koff is commonly meant a measure of how fast the partners let go of each other. A low value points to slow dissociation. On to B8, for which the Kd in [4] amounted to 0.123 nM; with Activin A [5] it was 13.5 nM; with Activin B, 0.788 nM; in assay [7] it was 0.655 nM; in assay [8], 2.15 nM. Besides, the koff in assay [7] was determined as 0.000439 s⁻¹; in assay [8] it was 0.00083 s⁻¹.

The kon is the second-order rate constant of association. Higher therefore signals faster complex formation. Regarding B9, the “IC50 (ng/mL), A-204 reporter gene assay, conditioned media” value in assay [9] was found to be 45 ng/mL; with Activin A [10], 22 ng/mL. Moreover, the figures for the Kd with Activin A [5], in the assay with Activin B and with Activin A [11] were 0.016 nM, 0.012 nM and 0.0268 nM, respectively. In the assay with Activin A [11], this molecule had a koff of 0.000159 s⁻¹. In the assay with Activin A [11], this molecule returned a kon of 5.94e+06 M⁻¹ s⁻¹.

B10: ActRIIB(R64K 20-134)-hFc (Fc fusion)
chain: GRGEAETRECIYYNANWELERTNQSGLERCEGEQDKRLHCYASWKNSSGTIELVKKGCWLDDFNCYDRQECVATEENPQVYFCCCEGNFCNERFTHLPEAGGPEVTYEPPPTAPT
notes: as for B9
Turning to B10, the figures for the Kd (in [7]; with Activin A [11]; in assay [8]) were 0.0356 nM, 0.0476 nM and 0.21 nM, respectively. For the same molecule, the results for the koff (in [7]; with Activin A [11]; in [8]) were 2.41e-05 s⁻¹, 0.000325 s⁻¹ and 4.71e-05 s⁻¹, respectively. Further, the kon with Activin A [11] is 6.82e+06 M⁻¹ s⁻¹.

On to B11, for which the Kd came to 0.036 nM with ActRIIB(20-134)-hFc [12], 0.0842 nM in the assay with ActRIIB(20-134)-hFc [13] and 19 nM in assay [14]. The molecule also yielded a dissociation rate constant (koff) with ActRIIB(20-134)-hFc [13] of 0.000113 s⁻¹. In addition, in the assay with ActRIIB(20-134)-hFc [13], the kon is 1.34e+06 M⁻¹ s⁻¹.

These data come from patent US20160326228A1 (ACCELERON PHARMA, published 2016).
